These results are taken from paper PMC10955041, “Reverse-engineering the anti-MUC1 antibody 139H2 by mass spectrometry–based de novo sequencing” (Life Science Alliance, 2024).

This test addresses T1, full-length MUC1 glycoprotein of HT29-MTX cells (Homo sapiens, HT29-MTX cells, UniProt P15941, VNTR heavily O-linked glycosylated).
T1 construct: Mucin 1 (MUC1), endogenous in the human colon cancer cell line HT29-MTX; band at an estimated 600 kD; written here as one chain; also called Mucin 1; source: endogenous, HT29-MTX lysate (Western blot) and fixed, permeabilized HT29-MTX monolayers (immunofluorescence)
As to the kind of experiment: far-Western, overlay or dot blot; immunoblot of SDS lysates of HT29-MTX and HT29-MTX ΔMUC1 cells on a mucin-SDS gel, PVDF; 139H2 antibodies 1:1,000 in TSMT with 1% BSA, 1 h at RT; detected with anti-mouse IgG. The note with it: one partner purified. Background: In western blotting, separated proteins are transferred to a membrane and probed.

T1 sequence (P15941 24-1255): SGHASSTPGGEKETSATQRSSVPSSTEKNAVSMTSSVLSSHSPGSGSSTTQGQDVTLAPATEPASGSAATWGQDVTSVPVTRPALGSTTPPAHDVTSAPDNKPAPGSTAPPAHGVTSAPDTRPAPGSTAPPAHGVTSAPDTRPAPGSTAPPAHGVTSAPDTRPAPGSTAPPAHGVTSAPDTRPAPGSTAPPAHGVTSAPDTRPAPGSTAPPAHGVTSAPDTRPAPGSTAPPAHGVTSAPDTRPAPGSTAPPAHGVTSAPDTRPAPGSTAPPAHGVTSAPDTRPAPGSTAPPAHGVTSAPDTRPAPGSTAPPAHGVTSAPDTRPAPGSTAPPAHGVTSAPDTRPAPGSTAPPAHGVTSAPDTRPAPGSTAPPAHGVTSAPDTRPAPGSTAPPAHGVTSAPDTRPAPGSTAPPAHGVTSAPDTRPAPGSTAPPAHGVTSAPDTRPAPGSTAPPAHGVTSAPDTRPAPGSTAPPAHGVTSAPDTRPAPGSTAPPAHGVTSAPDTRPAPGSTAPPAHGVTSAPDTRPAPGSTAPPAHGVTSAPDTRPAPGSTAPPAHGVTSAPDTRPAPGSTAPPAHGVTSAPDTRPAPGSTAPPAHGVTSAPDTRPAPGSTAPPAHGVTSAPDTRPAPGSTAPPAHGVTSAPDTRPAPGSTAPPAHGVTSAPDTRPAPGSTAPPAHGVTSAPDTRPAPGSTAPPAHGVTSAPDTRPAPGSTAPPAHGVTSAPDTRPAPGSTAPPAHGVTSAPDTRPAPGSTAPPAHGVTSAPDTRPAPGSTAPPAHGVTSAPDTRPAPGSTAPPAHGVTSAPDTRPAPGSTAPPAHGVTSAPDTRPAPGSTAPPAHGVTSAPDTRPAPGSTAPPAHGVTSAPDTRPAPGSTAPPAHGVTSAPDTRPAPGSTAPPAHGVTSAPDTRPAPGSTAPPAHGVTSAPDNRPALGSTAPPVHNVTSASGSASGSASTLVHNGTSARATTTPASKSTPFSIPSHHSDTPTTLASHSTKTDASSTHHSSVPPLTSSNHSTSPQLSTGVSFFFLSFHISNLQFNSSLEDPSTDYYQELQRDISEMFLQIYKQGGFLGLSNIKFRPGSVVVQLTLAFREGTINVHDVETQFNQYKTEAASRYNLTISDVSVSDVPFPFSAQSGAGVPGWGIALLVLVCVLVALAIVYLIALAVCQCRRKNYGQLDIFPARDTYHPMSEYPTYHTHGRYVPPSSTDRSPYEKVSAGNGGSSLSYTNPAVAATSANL

B1: hybridoma-derived 139H2 IgG (antibody, V domains shown)
VH: QVQLQQSGAELVKPGASVKLSCKASGYTFTNYYMYWVLQRPGQGLEWIGEINPSNGGTTFNEKFKNKATLTVDKSSSTAYMQLNSLTSEDSAVYYCTRSRYGNYVNYGMDYWGQGTSVTVSS
VL: DIVMSQSPSSLAVSVGEKVTMSCKSSQSLLYSNTQKNYLAWYQQKPGQSPKLLIYWASTRESGVPDRFTGSGSGTDFTLTISSVKAENLAVYYCQQYYRYPPTFGGGTKLELK
notes: as the heavy-chain variable domain of m1 (IGHV1-53); as the light-chain variable domain of m1 (IGKV8-30); mouse kappa light-chain constant region; Mouse IgG1, kappa; also called original hybridoma-derived 139H2; 139H2 WT; source: hybridoma culture supernatant (gift, NKI), purified (Protein G Sepharose); copies: 2 + 2
In the case of B1, the binding result is given as “binds”.

B2: recombinant 139H2 Fab fragment (Fab, V domains shown)
VH: QVQLQQSGAELVKPGASVKLSCKASGYTFTNYYMYWVLQRPGQGLEWIGEINPSNGGTTFNEKFKNKATLTVDKSSSTAYMQLNSLTSEDSAVYYCTRSRYGNYVNYGMDYWGQGTSVTVSS
VL: DIVMSQSPSSLAVSVGEKVTMSCKSSQSLLYSNTQKNYLAWYQQKPGQSPKLLIYWASTRESGVPDRFTGSGSGTDFTLTISSVKAENLAVYYCQQYYRYPPTFGGGTKLELK
notes: as the heavy-chain variable domain of m1 (IGHV1-53); mouse Ig gamma-1 (IGHG1) Fab constant region; as the light-chain variable domain of m1 (IGKV8-30); mouse kappa light-chain constant region, as in m1; also called monovalent Fab fragment; anti-MUC1 Fab; source: HEK293 cells (ImmunoPrecise Antibodies), culture supernatant, purified (HisTrap Excel, Superdex 200 SEC)
For B2, the binding result is recorded as “binds”.

B3: recombinant (reverse-engineered) 139H2 IgG (antibody, V domains shown)
VH: QVQLQQSGAELVKPGASVKLSCKASGYTFTNYYMYWVLQRPGQGLEWIGEINPSNGGTTFNEKFKNKATLTVDKSSSTAYMQLNSLTSEDSAVYYCTRSRYGNYVNYGMDYWGQGTSVTVSS
VL: DIVMSQSPSSLAVSVGEKVTMSCKSSQSLLYSNTQKNYLAWYQQKPGQSPKLLIYWASTRESGVPDRFTGSGSGTDFTLTISSVKAENLAVYYCQQYYRYPPTFGGGTKLELK
notes: also in PDB 8P6I; standard mouse Ig gamma-1 (IGHG1) constant region, linker and Fc region, UniProt P01868.1; mouse kappa light-chain constant region (kappa light-chain backbone); Mouse IgG1, kappa; also called synthetic recombinant 139H2; recombinant 139H2; source: HEK293 cells (ImmunoPrecise Antibodies), culture supernatant, purified (HisTrap Excel); copies: 2 + 2
Take B3: the binding result is “binds”.
